Experimental data as given in patent US20250376539A1 (KIRA PHARMACEUTICALS SUZHOU, published 2025).
Where a chain is given by its changes, count along the chain named.

How the values were obtained:
[1] = molecular target: T1, recombinant human complement C2 (NP_000054.2), C-terminal 6His-tag, made in house (CHO cell expression) (human, UniProt P06681 21-752); assay: BLI (Gator); ratio of dissociation at pH 5.8 to pH 7.4
T1 construct: a linker before the tag is not described; also called human C2; Human C2
T1 sequence: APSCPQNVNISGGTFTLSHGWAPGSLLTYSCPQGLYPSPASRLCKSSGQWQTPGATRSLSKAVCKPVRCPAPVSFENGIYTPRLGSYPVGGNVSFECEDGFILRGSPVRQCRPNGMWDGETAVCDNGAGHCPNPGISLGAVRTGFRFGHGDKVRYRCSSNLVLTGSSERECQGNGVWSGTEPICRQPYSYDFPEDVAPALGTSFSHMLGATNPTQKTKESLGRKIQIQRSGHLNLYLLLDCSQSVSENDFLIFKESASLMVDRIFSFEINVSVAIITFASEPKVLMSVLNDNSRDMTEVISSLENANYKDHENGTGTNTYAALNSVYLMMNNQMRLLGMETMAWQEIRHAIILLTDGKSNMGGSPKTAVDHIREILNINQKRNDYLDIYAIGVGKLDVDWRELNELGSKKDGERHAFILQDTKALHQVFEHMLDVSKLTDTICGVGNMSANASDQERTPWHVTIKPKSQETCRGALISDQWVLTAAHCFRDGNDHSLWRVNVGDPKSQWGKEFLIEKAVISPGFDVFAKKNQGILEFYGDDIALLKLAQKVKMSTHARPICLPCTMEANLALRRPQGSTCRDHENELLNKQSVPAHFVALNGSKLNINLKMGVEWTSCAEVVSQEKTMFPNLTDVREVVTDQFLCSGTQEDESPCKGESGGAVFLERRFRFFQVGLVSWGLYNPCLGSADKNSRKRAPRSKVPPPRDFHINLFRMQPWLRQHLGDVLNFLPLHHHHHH
Description: (§1) The histidine mutant constructs in Table 4 were tested for their pH-dependent dissociation from human C2. Probe-immobilized anti-C2 antibodies were incubated with C2 at pH 7.4 for 600s, followed by a 600s dissociation period in K Buffer at pH 7.4 or pH 5.8. The data were processed and analyzed by the Gator evaluation software.

[2] = molecular target: T2, recombinant cyno C2a, C-terminal 6His-tag, made in house (CHO cell expression) (cynomolgus monkey, UniProt P06681 244-752 (human entry)); assay: ELISA on cyno C2a, OD450nm against log Ab conc. (nmol/L)
T2 chain: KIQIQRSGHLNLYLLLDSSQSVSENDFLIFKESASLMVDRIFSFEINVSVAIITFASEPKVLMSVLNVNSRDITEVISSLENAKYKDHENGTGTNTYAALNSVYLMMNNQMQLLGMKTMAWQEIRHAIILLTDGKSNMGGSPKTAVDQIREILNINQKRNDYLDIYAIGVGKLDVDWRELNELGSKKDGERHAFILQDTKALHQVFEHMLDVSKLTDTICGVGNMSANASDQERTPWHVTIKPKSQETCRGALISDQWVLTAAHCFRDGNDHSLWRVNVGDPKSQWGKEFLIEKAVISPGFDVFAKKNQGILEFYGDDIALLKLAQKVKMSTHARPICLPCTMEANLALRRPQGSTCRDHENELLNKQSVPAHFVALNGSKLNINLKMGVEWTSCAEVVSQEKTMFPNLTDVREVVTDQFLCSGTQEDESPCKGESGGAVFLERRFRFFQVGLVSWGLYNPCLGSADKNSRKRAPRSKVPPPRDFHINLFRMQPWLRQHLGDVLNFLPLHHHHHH

[3] = molecular target: T3, recombinant human C2a, C-terminal 6His-tag, made in house (CHO cell expression) (human, UniProt P06681 244-752); assay: ELISA on human C2a, OD450nm against log Ab conc. (nmol/L)
T3 sequence: T2 chain with S18C, V68D, I73M, K84N, Q112R, K117E, Q148H

[4] = molecular target: T1, recombinant human complement C2 …; assay: BLI (Gator), antibody on probe; 600 s association at pH 7.4, 600 s dissociation at pH 5.8
Description: as §1

[5] = molecular target: T1, recombinant human complement C2 …; assay: BLI (Gator), antibody on probe; 600 s association at pH 7.4, 600 s dissociation at pH 7.4
Description: as §1

[6] = molecular target: T3, recombinant human C2a, C-terminal …; assay: ELISA
[7] = molecular target: T2, recombinant cyno C2a, C-terminal …; assay: ELISA
[8] = molecular target: T2, recombinant cyno C2a, C-terminal …; assay: binding kinetics (BLI presumed)

B1: anti-C2 antibody 3.2 (antibody, IgG4, V domains shown)
VH: EVQLLESGGGLVQPGGSLRLSCAASGFTFRHYAMSWVRQAPGKGLEWVSLISGSGASTFYADSVKGRFTISRDNSENMLYLQMNSLRAEDTAVYYCAKDSLAVAGSEYFQHWGQGTLVTVSS
VL: SYVLTQAPSVSVAPGQTARITCGGNYFGGKSVHWYQQRPGQAPVLVVYDDSDRPSGIPERFSGSKSGNTATLAISRVEAGDEAAYYCQVYDTSSDHWVFGGGTKLTVL
notes: Recombinant; also called WT; "WT" 3.2
[1]
  Fold dissociation pH 5.8/pH 7.4: 2.3 fold
[2]
  binding result: no binding (tested: 100 nmol/L)
[3]
  binding result: no binding (tested: 100 nmol/L)
[4]
  Dissociation (%) pH 5.8: 8.2%
[5]
  Dissociation (%) pH 7.4: 3.59%

B2: anti-C2 antibody 69.44 (antibody, IgG4, V domains shown)
VH: QVQLVQSGAEVKKPGASVKVSCKASGYSFTTYYMYWVRQAPGQGLEWMGIITPSGGSTTYAQKFQDRVTMTRDASTTTVYMELSSLRSEDTAVYYCARGYEGSYGFDHWGQGTLVTVSS
VL: SYELTQPPSVSLSPGQTASITCSGDKLGNKYTCWYQQKPGQSPVLVIYQDNKRPSGIPERFSGSNSGNTATLTISGTQAMDEADYYCQTWDSSTAVFGGGTKLTVL
notes: Recombinant
[6]
  EC50: 0.117 nM
[7]
  EC50: 0.119 nM
[8]
  Kd: 0.376 nM
  koff: 8.79e-05 s⁻¹
  kon: 234000 M⁻¹ s⁻¹
